Columns and labels:
[1] = molecular target: T1, mouse recombinant TNF-α (Mus musculus, UniProt P06804); test: Cleavage of mouse TNF-α (Western blotting); type: biochemical; settings: 100 ng cytokine, 37° C. overnight, Western blot
T1 sequence (P06804 80-235 limits assumed): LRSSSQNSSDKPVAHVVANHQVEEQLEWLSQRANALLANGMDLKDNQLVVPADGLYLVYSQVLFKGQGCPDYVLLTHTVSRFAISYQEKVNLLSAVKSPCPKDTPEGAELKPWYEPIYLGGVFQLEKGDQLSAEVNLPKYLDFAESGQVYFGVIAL
Experimental: Degradation of mouse recombinant TNF-α: (A) or IFN-γ (B) following treatment with: the protease powder prepared according to Example 1 (preparation), purified alkaline protease (AP); Pseudomonas elastase (E); and buffered-treated control (C). The cytokines (100 ng each) were incubated at 37° C. overnight with the indicated quantities (ng) of enzymes, and then analyzed by Western blotting for evidence of degradation. A scan of AP-treated mouse TNF-α (left-hand Western blot) showing the decreasing density of the top band as a function of alkaline protease concentration (C).
Because the anti-TNF-α used here was specific for an epitope located in the carboxyl terminus of the cytokine, the pattern of cleavage is most consistent with attack at the amino terminus of TNF-α (e.g., there is a loss of molecular mass without a loss of the epitope recognized by the antibody).

[2] = molecular target: T2, TNF-α (Mus musculus, UniProt P06804); test: Protease-treated TNF-α injected i.p. into mice, activated caspase-3 in intestine; type: in vivo; settings: TNF-α treated with protease for 2 h, intestine 1 h later
T2 sequence (P06804 80-235 limits assumed): T1 sequence (P06804 80-235 limits assumed)
Experimental: TNF-α was first treated either with PBS, AP or D for 2 h, the reaction mixtures were inactivated by the addition of FBS, and the cytokine-protease mixtures were injected i.p. into mice. (A) One hour later the mice were euthanized, samples of their intestines were collected and fixed, and tissue sections were analyzed by immunohistology for the expression of activated caspase-3. These are the results are shown in which data are expressed in two forms: (B) the frequency distributions of sections expressing different levels of activated caspase-3; and (C) the percentages of tissue sections in which 10% or more of the villi stained for activated caspase-3.
A series of experiments was performed in which the activation of caspase-3 within the intestine was measured. […] One hour later the mice were euthanized, samples of their intestines were collected and fixed, and tissue sections were analyzed by immunohistology for the expression of activated caspase-3 (FIG. 21-22). […]
Mice were injected i.p. with 5 ng of recombinant mouse TNF-α or protease-treated TNF-α, and 2 cm segments of their duodenums were collected 1 h later. […] The sections were first treated with rabbit antibody to activated (cleaved) mouse caspase-3, and bound antibody was detected using a Histostain-SP kit. […] At least 48 sections were analyzed in this fashion from each mouse.

[3] = test system: TNBS-induced colitis; test: Induction of IBD in the hapten (TNBS)-induced SJL mouse model; type: in vivo; settings: SJL mice, i.p. and oral treatment
Experimental: This example uses the TNBS model in the SJL mouse, a susceptible strain, comparing systemic versus oral administration of the alkaline protease as a prophylactic treatment of blocking the induction of gastrointestinal inflammation. Endpoint measurements can include histopathological evaluation and scoring of the lesions as known in the art.
SJL strain mice (Jackson Labs) can be lightly anesthetized, and a solution of 25-50 μg of TNBS in 100 μl 50% ethanol can be administered by enema. Initial studies can determine whether sufficient pathology is induced by a single injection or whether the two challenge protocol (day 0 and day 7) is preferable. Response parameters include: (a) body weight measured on days 0, 2, 4, 6, 8, and 10; (b) pathological scoring of lesions in the intestine on day 10 (0=no inflam; 1=low level leukocyte infiltration; 2=medium infiltration, vascular intensity with some wall thickening; 3=high level infiltration, vascular response and thickening; 4=transmural infiltration, loss of goblet cells); (c) and immunohistological staining for activated caspase-3 and TNF-α. Wall thickening can be measured, for instance, as described by Dohi et al. (1999) “Hapten-induced colitis is associated with colonic patch hypertrophy and T helper cell 2-type responses.” J Expt Med 189: 1169-79, which is incorporated by reference. […]

B1: Alkaline Protease: Aspergillus oryzae alkaline protease (oryzin), SEQ ID NO: 2, purified from the protease powder of Example 1 (protein, listed as Aspergillus oryzae)
chain: MQSIKRTLLLLGAILPAVLGAPVQETRRAAEKLPGKYIVTFKPGIDEAKIQEHTTWATNIHQRSLERRGATGGDLPVGIERNYKINKFAAYAGSFDDATIEEIRKNEDVAYVEEDQIYYLDGLTTQKSAPWGLGSISHKGQQSTDYIYDTSAGEGTYAYVVDSGVNVDHEEFEGRASKAYNAAGGQHVDSIGHGTHVSGTIAGKTYGIAKKASILSVKVFQGESSSTSVILDGFNWAANDIVSKKRTSKAAINMSLGGGYSKAFNDAVENAFEQGVLSVVAAGNENSDAGQTSPASAPDAITVAAIQKSNNRASFSNFGKVVDVFAPGQDILSAWIGSSSATNTISGTSMATPHIVGLSLYLAALENLDGPAAVTKRIKELATKDWKDVKGSPNLLAYNGNA
[1]
  Cleavage of mouse TNF-α: evidenced the same substrate specificity
[2]
  Ability of protease-treated TNF-α to activate caspase-3 in intestinal epithelial cells: destroyed the ability of the cytokine to activate caspase-3
[3]
  Weight loss and IBD induction by TNBS: can prevent and/or lessen weight loss and IBD induction by TNBS
